{"source": "paper PMC8096068", "about": "“The canonical α-SNAP is essential for gametophytic development in Arabidopsis” (PLoS Genetics, 2021)", "binders": {"B1": {"name": "GST-ASNAP.1 (natural protein, Arabidopsis, UniProt Q9SPE6 1-289, looked up)", "chain": "MGDHLVRAEEFEKKAEKKLNGWGIFGSKYEDAADLLEKAANSYKLAKSWDQAGKAYLKLADCHLKSDSKHDAANAYAEAAKCYKKVDTNEAASCLERAVNIFCEIGRLNMAARYYKEIAEYYESDQKFEQAIAYFEKAAEFFQNEEVTTSANQCNLKVAQYAAQLEQYEKAIKIYEDIARHSLNNNLLKYGVKGHLLTAGMCHLCKADVVSITNALEKYQDLDPTFTGTRECKFLADLASAIDEEDIAKFTDVVKEFDSMTPLDSWKTTMLLRVKEKLKAKELEEDDLT", "notes": "Arabidopsis thaliana alpha-soluble NSF attachment protein ASNAP, splicing variant ASNAP.1 (At3g56190.1); The only vector named for the pull-down constructs is pET-32a, which is not a GST vector; also called ASNAP.1-GST; α-SNAP.1"}}, "target": "T1, His-NSF (Arabidopsis, UniProt Q9M0Y8 1-742)", "T1 construct": "Arabidopsis thaliana N-ethylmaleimide-sensitive factor (NSF), At4g04910; also called NSF-His; his-tagged NSF", "T1 sequence (looked up)": "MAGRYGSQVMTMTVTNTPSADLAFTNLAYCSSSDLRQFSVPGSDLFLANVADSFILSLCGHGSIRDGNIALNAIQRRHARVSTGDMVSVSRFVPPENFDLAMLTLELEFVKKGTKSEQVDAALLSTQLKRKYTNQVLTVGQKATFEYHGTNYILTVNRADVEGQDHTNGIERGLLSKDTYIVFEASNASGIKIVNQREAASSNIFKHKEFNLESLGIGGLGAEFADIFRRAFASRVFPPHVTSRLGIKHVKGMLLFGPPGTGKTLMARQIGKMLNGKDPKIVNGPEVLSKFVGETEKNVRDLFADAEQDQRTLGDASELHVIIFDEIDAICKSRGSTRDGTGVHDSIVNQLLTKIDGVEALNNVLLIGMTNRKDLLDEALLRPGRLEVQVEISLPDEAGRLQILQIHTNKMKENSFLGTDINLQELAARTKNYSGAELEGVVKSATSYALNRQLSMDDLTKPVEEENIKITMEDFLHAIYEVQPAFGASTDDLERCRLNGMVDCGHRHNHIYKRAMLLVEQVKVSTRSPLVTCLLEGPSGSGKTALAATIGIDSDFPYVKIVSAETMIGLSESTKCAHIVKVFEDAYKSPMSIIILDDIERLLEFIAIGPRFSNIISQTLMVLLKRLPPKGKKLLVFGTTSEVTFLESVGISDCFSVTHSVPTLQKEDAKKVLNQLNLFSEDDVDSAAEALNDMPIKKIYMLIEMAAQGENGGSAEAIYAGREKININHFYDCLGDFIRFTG", "test": "pull-down; in vitro pull-down; NSF-His used to pull down ASNAP.1-GST or ASNAP.2-GST; recombinant proteins from E. coli, affinity-purified", "details": "both partners purified", "data": [{"binder": "B1", "values": [{"measurement": "binding result", "result": "binds"}]}]}
